This test deals with GST-tetra-ubiquitin (4×UB) (UniProt P0CG48). As to the kind of experiment: LUMIER.

B1: Renilla luciferase fused to the full-length WT spartin (natural protein)
chain: MEQEPQNGEPAEIKIIREAYKKAFLFVNKGLNTDELGQKEEAKNYYKQGIGHLLRGISISSKESEHTGPGWESARQMQQKMKETLQNVRTRLEILEKGLATSLQNDLQEVPKLYPEFPPKDMCEKLPEPQSFSSAPQHAEVNGNTSTPSAGAVAAPASLSLPSQSCPAEAPPAYTPQAAEGHYTVSYGTDSGEFSSVGEEFYRNHSQPPPLETLGLDADELILIPNGVQIFFVNPAGEVSAPSYPGYLRIVRFLDNSLDTVLNRPPGFLQVCDWLYPLVPDRSPVLKCTAGAYMFPDTMLQAAGCFVGVVLSSELPEDDRELFEDLLRQMSDLRLQANWNRAEEENEFQIPGRTRPSSDQLKEASGTDVKQLDQGNKDVRHKGKRGKRAKDTSSEEVNLSHIVPCEPVPEEKPKELPEWSEKVAHNILSGASWVSWGLVKGAEITGKAIQKGASKLRERIQPEEKPVEVSPAVTKGLYIAKQATGGAAKVSQFLVDGVCTVANCVGKELAPHVKKHGSKLVPESLKKDKDGKSPLDGAMVVAASSVQGFSTVWQGLECAAKCIVNNVSAETVQTVRYKYGYNAGEATHHAVDSAVNVGVTAYNINNIGIKAMVKKTATQTGHTLLEDYQIVDNSQRENQEGAANVNVRGEKDEQTKEVKEAKKKDK
B1: the fold weaker binding than to 2×UB was 4 fold.

For the origin of these results see publication PMC3982999.
